From US12698495B2, “Engineered tryptophan decarboxylases and uses thereof for synthesizing tryptamine analogs” (priority 2022, dated 2026)

How the values were obtained:
serotonin receptor = settings: known from literature (ref. 43); cited from earlier work
[1] = cited from earlier work
[2] = PfTrpB variant activity and promiscuity; assay type: biochemical, Pyrococcus furiosus

## CCOc1ccc2[nH]cc(CCN)c2c1 [5-OEt-tryptamine]
Serotonin receptor
  serotonin receptor activity: agonists

## COc1ccc2[nH]cc(CCN)c2c1 [5-OMe-tryptamine]
Serotonin receptor
  serotonin receptor activity: agonists

B1: 2B9: engineered PfTrpB variant 2B9, SEQ ID NO:3 (protein, listed as Pyrococcus furiosus)
chain: MWFGEFGGQYVPETLVGPLKELEKAYKRFKDDEEFNRQLNYYLKTWAGRPTPLYYAKRLTEKIGGAKVYLKREDLVHGGAHKTNNAIGQALLAKLMGKTRLIAETGAGQHGVATAMAGALLGMKVDIYMGAEDVERQKMNVFRMKLLGANVIPVNSGSRTLKDAINEALRDWVATFEYTHYLIGSVVGPHPYPTIVRDFQSVIGREAKAQILEAEGQLPDVIVACVGGGSNAMGIFYPFVNDKKVKLVGVEAGGKGLESGKHSASLNAGQVGVSHGMLSYFLQDEEGQIKPSHSIAPGLDYPGVGPEHAYLKKIQRAEYVAVTDEEALKAFHELSRTEGIIPALESAHAVAYAMKLAKEMSRDEIIIVNLSGRGDKDLDIVLKASGNVLEHHHHHH
[1]; 75° C.
  activity with a variety of substrate analogs: high activity
[1]; lower temperatures than 75° C.
  activity at lower temperatures: activity decreases

B2: H275E (protein, listed as Pyrococcus furiosus)
chain: MWFGEFGGQYVPETLVGPLKELEKAYKRFKDDEEFNRQLNYYLKTWAGRPTPLYYAKRLTEKIGGAKVYLKREDLVHGGAHKTNNAIGQALLAKLMGKTRLIAETGAGQHGVATAMAGALLGMKVDIYMGAEDVERQKMNVFRMKLLGANVIPVNSGSRTLKDAINEALRDWVATFEYTHYLIGSVVGPHPYPTIVRDFQSVIGREAKAQILEAEGQLPDVIVACVGGGSNAMGIFYPFVNDKKVKLVGVEAGGKGLESGKHSASLNAGQVGVSEGMLSYFLQDEEGQIKPSHSIAPGLDYPGVGPEHAYLKKIQRAEYVAVTDEEALKAFHELSRTEGIIPALESAHAVAYAMKLAKEMSRDEIIIVNLSGRGDKDLDIVLKASGNVLEHHHHHH
[2]
  activity and promiscuity of PfTrpB variant in SUMS: generally activated
[2]; 75° C.
  activity of PfTrpB mutant: activating
